Measured values reported in the Human Domainome abundance scans (Beltran et al. 2025).

B1: Far upstream element-binding protein 1, residues 98 to 169; numbered along this chain, Q96AE4 (parent)
chain: RSVMTEEYKVPDGMVGFIIGRGGEQISRIQQESGCKIQIAPDSGGLPERSCMLTGTPESVQSAKRLLDQIVE
B2: Gamma-crystallin C, residues 91 to 170; numbered along this chain, P07315 (parent)
chain: RLYEREDHKGLMMELSEDCPSIQDRFHLSEIRSLHVLEGCWVLYELPNYRGRQYLLRPQEYRRCQDWGAMDAKAGSLRRV

Variants of: B1
Experiment: abundance fitness (aPCA) (normalised: wild type 0, dead -1); higher = more abundant; growth selection in yeast, the domain comes from the species named
Conditions: Homo sapiens

Abundance fitness: each site, then its substitutions
E72: M -0.01; W -0.008; T 0.05; Y -0.01; P -0.065; N -0.11; K -0.129; H -0.007; S 0.012; F -0.111; C -0.034; D -0.048; G 0.024; A 0.04; V 0.051
V71: Q -0.008; G -0.061; E -0.089; T -0.083; Y -0.183; R -0.046; S -0.074; M -0.088; F -0.065; K -0.031; C -0.044; H -0.128; W -0.094; D -0.114; I -0.077; A -0.036; N -0.087; P -0.047

Variants of: B2
Experiment: as above
Conditions: Homo sapiens

Abundance fitness of substitutions, site by site:
H8: Y 0.111
R1: K -0.072; I 0.241; V -0.381; S -0.936; T -0.314; G -0.879; D -0.857; W -0.404; E -0.756
E4: D -0.153; G -0.348; I -0.746; S -0.027; W -0.78; T -0.123; C -0.291; Y -0.7; P -0.341; M -0.019; F -0.347; K -0.375; A -0.129; H -0.571; R -0.582; N -0.261; L -0.339
K9: T -0.156; I -0.68; F -0.559; H -0.174; Y -0.467; M 0.212; W -0.909; V -0.402; Q 0.117; S -0.241; N -0.085; R -0.132; A -0.129; P -0.728; E 0.017; D -0.254; G -0.171; C -0.103
L2: V -0.714; P -1.13; M -0.346; A -0.494; C -0.777; Y -0.936; G -0.922; T -0.622; W -0.847
R5: L -0.029; D -0.175; G -0.105; W -0.203; T -0.747; M 0.047; S -0.144; V -0.429; A -0.309; H 0.185; P -0.788
G10: H -0.818; Q -0.775; F -0.717; P -0.951; V -0.821; S -0.923; A -0.976; T -1.01; L -1.06; Y -0.623; R -0.931; C -0.905; N -0.655; D -0.731
D7: P -0.846; A -0.248; F -0.203; G -0.186; S -0.277; Y -0.098; V -0.936; K -0.578; L -0.554; M -0.241; T -0.995; H -0.221; Q -0.273; R -0.505; E -0.03; C -0.237
L11: P -0.004; G -0.092; F -0.017; Q -0.127; R -0.031; H -0.144; S -0.089; M -0.017; I -0.116; E 0; A -0.13; N 0.018; C -0.08; D -0.248
E6: Y -0.64; W -0.718; V -0.53; Q -0.445; N -0.416; A -0.284; M -0.698; R -0.642; D -0.538; L -0.892; G -0.803; T -0.362
Y3: C -0.64; F -0.238; A -0.771; W -0.324; K -0.948; R -0.846; N -0.633; P -0.807; Q -0.88; V -0.949; L -1.04; H -0.598; G -0.955
